Sequences and labels used below:
B1: ASP63 (synthetic AChE-S C-terminal peptide, residues 548-610 of hAChE) (peptide)
peptide: PLEVRRGLRAQACAFWNRFLPKLLSATDTLDEAERQWKAEFHRWSSYMVHWKNQFDHYSKQDR

Chain of synthetic Aβ (1-40) peptide (Biosource) (P05067 672-711 limits assumed): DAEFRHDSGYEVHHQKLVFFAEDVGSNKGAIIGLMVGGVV

This assay has as its target synthetic Aβ (1-40) peptide (Biosource) (UniProt P05067 672-711). Put plainly: cell-based or functional assay.
Turning to DTLDEAERQWKAEFHRWSSYMVHWKNQFDHYSKQDRCSDL [ASP40 (synthetic AChE-S C-terminal peptide, residues 575-614 of hAChE)], the “Lag (fold change) of Aβ fibrillation against no addition” value (shortened to “Lag (fold change) … against no addition”) was determined as 1.1 fold, the “Lag (h) before onset of Aβ fibrillation” value amounted to 4.4 h and the “Rate (fold change) of Aβ fibrillation against no addition” value was 0.8 fold.

In the case of B1, the “Lag (fold change) … against no addition” value was 1.5 fold, the “Lag (h) before onset of Aβ fibrillation” value amounted to 5.9 h and the “Rate (fold change) of Aβ fibrillation against no addition” value stood at 0.7 fold.

With GNIDEAEWEWKAGFHRWNNYMMDWKNQFNDYTSKKESCVGL [BSP41 (synthetic BChE C-terminal peptide, residues 562-602 of hBChE)], the “Lag (fold change) … against no addition” value is above 1.9 fold, the “Lag (h) before onset of Aβ fibrillation” value is above 7.5 h and the “Rate (fold change) of Aβ fibrillation against no addition” value was found to be 0.4 fold.

Source of the values: patent publication US20090169520A1 (YISSUM RESEARCH DEVELOPMENT COMPANY OF THE HEBREW …, published 2009).
